Results on 13 molecules are retold here after PMC4027167, “The histone chaperones Vps75 and Nap1 form ring-like, tetrameric structures in solution” (Nucleic Acids Research, 2014).

For series [1], the target named is Nap1 L120C dimers labelled with Maleimide-PEG2-Biotin (budding yeast) (UniProt P25293). Briefly: BLI; biotinylated chaperone dimers on streptavidin biosensors, unlabelled wild-type chaperone in solution; 150 mM NaCl, 20 mM HEPES.KOH pH 7.5, 0.1% BSA; steady state, one site saturation fit; two dimers to tetramer.
For series [2], the target named is Nucleosome Assembly Protein 1 (Nap1) (budding yeast) (UniProt P25293). Briefly: SEC-MALS; 500 mM NaCl, 20 mM HEPES-KOH pH 7.5; MAbPac SEC-1 column (Figure 1) or Superdex S200 10/300 (Figure 7).
Series [3] has the same target. Put plainly: SEC-MALS; 150 mM NaCl, 20 mM HEPES-KOH pH 7.5; MAbPac SEC-1 column (Figure 1) or Superdex S200 10/300 (Figures 5 and 7).
Series [4] has as its target Vps75, full-length (budding yeast) (UniProt P53853). Briefly: SAXS; 150 mM NaCl, 0.5 to 10 mg/ml, 10°C.
For series [5], the target named is Vps75 Y35C dimers labelled with Maleimide-PEG2-Biotin (budding yeast) (UniProt P53853). Briefly: BLI; biotinylated chaperone dimers on streptavidin biosensors, unlabelled wild-type chaperone in solution; 150 mM NaCl, 20 mM HEPES.KOH pH 7.5, 0.1% BSA; steady state, one site saturation fit; two dimers to tetramer. (In general: BLI is a label-free optical method that tracks binding on a fibre tip over time.)

In series [6] the target is Vps75, full-length (budding yeast) (UniProt P53853). Put plainly: SEC-MALS; 500 mM NaCl, 20 mM HEPES-KOH pH 7.5; MAbPac SEC-1 column (Figure 1) or Superdex S200 10/300 (Figure 7). (In general: SEC sorts molecules by how far they enter the pores of the column.)
Series [7] has the same target. Briefly: SAXS; 500 mM NaCl, 0.5 to 10 mg/ml, 10°C.
The target is the same in series [8]. Briefly: SEC-MALS; 150 mM NaCl, 20 mM HEPES-KOH pH 7.5; MAbPac SEC-1 column (Figure 1) or Superdex S200 10/300 (Figures 5 and 7).
Series [9] has as its target Vps75 lacking the unstructured C-terminal domain (residues 1–223) (budding yeast) (UniProt P53853). Put plainly: SEC-MALS; 500 mM NaCl, 20 mM HEPES-KOH pH 7.5; MAbPac SEC-1 column (Figure 1) or Superdex S200 10/300 (Figure 7).
Series [10] has the same target. Briefly: SAXS; 500 mM NaCl, 0.5 to 10 mg/ml, 10°C.
For series [11] the target is unchanged. Put plainly: SEC-MALS; 150 mM NaCl, 20 mM HEPES-KOH pH 7.5; MAbPac SEC-1 column (Figure 1) or Superdex S200 10/300 (Figures 5 and 7).
Series [12] deals with the molecule itself. Put plainly: PELDOR; spin-labelled protein, 100–150 μM dimer, 150 mM NaCl, 20 mM HEPES-KOH pH 7.5 in deuterium oxide, mixed 1:1 with D8-glycerol; tetrameric conditions.
Series [13] concerns the molecule itself. Put plainly: SEC-MALS; 150 mM NaCl, 20 mM HEPES-KOH pH 7.5; MAbPac SEC-1 column (Figure 1) or Superdex S200 10/300 (Figures 5 and 7).
Series [14] deals with the molecule itself. Put plainly: PELDOR; spin-labelled protein, 100–150 μM dimer, 500 mM NaCl, 20 mM HEPES-KOH pH 7.5 in deuterium oxide, mixed 1:1 with D8-glycerol; dimeric conditions.

A word on the Kd: it is the equilibrium constant for the complex coming apart. Low values mean higher affinity, high ones lower affinity. The stoichiometry N is the number of molecules, sites or subunits per partner or assembly. “Nucleosome Assembly Protein 1 (Nap1) (from UniProt P25293 1-417) (natural protein)”: in [1], the Kd came to 3570 nM. Besides, the figures for the stoichiometry N in series [2] and in series [3] were 2 and 4, respectively.

Turning to “Vps75, full-length (from UniProt P53853 1-264) (natural protein)”, the stoichiometry N is 4 in [4], 2 in series [6], 2 in series [7] and 4 in [8]. The Kd in series [5] stood at 600 nM.

On to “Vps75 lacking the unstructured C-terminal domain (residues 1–223) (from UniProt P53853 1-223) (domain or fragment)”, for which the figures for the stoichiometry N in [9], in [10] and in series [11] were 2, 2 and 4, respectively.

B1: Vps75 K117R1 (natural protein, budding yeast, UniProt P53853 1-264, looked up)
chain: MMSDQENENEHAKAFLGLAKAEEEVDAIEREVELYRLNKMKPVYEKRDAYIDEIAEFWKIVLSQHVSFANYIRASDFKYIDTIDKIKVEWLALESEMYDTRDFSITFHFHGIEGDFCEQQVTKVFQIKKGKDDQEDGILTSEPVPIEWPQSYDSINPDLIKDKRSPEGKKKYRQGMKTIFGWFRWTGLKPGKEFPHGDSLASLFSEEIYPFAVKYYAEAQRDLEDEEGESGLSADGDSEDDDGSLGEVDLPLSDEEPSSKKRKV
modifications: MTSL spin label (R1) on cysteine 117; deuterated protein
notes: Vps75 of budding yeast, open reading frame, unique cysteine at position 117; also called Vps75 K117C; not shown: His6, N-terminal, cleaved
Consider B1, for which the “stoichiometry N” value in series [12] was determined as 4.

B2: Vps75 K170E (natural protein, budding yeast, UniProt P53853 1-264, looked up)
chain: MMSDQENENEHAKAFLGLAKAEEEVDAIEREVELYRLNKMKPVYEKRDAYIDEIAEFWKIVLSQHVSFANYIRASDFKYIDTIDKIKVEWLALESEMYDTRDFSITFHFHGIEGDFKEQQVTKVFQIKKGKDDQEDGILTSEPVPIEWPQSYDSINPDLIKDKRSPEGKEKYRQGMKTIFGWFRWTGLKPGKEFPHGDSLASLFSEEIYPFAVKYYAEAQRDLEDEEGESGLSADGDSEDDDGSLGEVDLPLSDEEPSSKKRKV
notes: Vps75 of budding yeast, point mutant in the C21A/C212A construct
In the case of B2, the “stoichiometry N” value in [13] is around 2.

B3: Vps75 K169E (natural protein, budding yeast, UniProt P53853 1-264, looked up)
chain: MMSDQENENEHAKAFLGLAKAEEEVDAIEREVELYRLNKMKPVYEKRDAYIDEIAEFWKIVLSQHVSFANYIRASDFKYIDTIDKIKVEWLALESEMYDTRDFSITFHFHGIEGDFKEQQVTKVFQIKKGKDDQEDGILTSEPVPIEWPQSYDSINPDLIKDKRSPEGEKKYRQGMKTIFGWFRWTGLKPGKEFPHGDSLASLFSEEIYPFAVKYYAEAQRDLEDEEGESGLSADGDSEDDDGSLGEVDLPLSDEEPSSKKRKV
notes: as for B2
For B3, the “stoichiometry N” value in [13] is around 2.

B4: Vps75 R164D (natural protein, budding yeast, UniProt P53853 1-264, looked up)
chain: MMSDQENENEHAKAFLGLAKAEEEVDAIEREVELYRLNKMKPVYEKRDAYIDEIAEFWKIVLSQHVSFANYIRASDFKYIDTIDKIKVEWLALESEMYDTRDFSITFHFHGIEGDFKEQQVTKVFQIKKGKDDQEDGILTSEPVPIEWPQSYDSINPDLIKDKDSPEGKKKYRQGMKTIFGWFRWTGLKPGKEFPHGDSLASLFSEEIYPFAVKYYAEAQRDLEDEEGESGLSADGDSEDDDGSLGEVDLPLSDEEPSSKKRKV
notes: as for B2
Consider B4, for which the “stoichiometry N” value in series [13] was around 2.

B5: Vps75 E56R1 (natural protein, budding yeast, UniProt P53853 1-264, looked up)
chain: MMSDQENENEHAKAFLGLAKAEEEVDAIEREVELYRLNKMKPVYEKRDAYIDEIACFWKIVLSQHVSFANYIRASDFKYIDTIDKIKVEWLALESEMYDTRDFSITFHFHGIEGDFKEQQVTKVFQIKKGKDDQEDGILTSEPVPIEWPQSYDSINPDLIKDKRSPEGKKKYRQGMKTIFGWFRWTGLKPGKEFPHGDSLASLFSEEIYPFAVKYYAEAQRDLEDEEGESGLSADGDSEDDDGSLGEVDLPLSDEEPSSKKRKV
modifications: MTSL spin label (R1) on cysteine 56; deuterated protein
notes: Vps75 of budding yeast, open reading frame, unique cysteine at position 56; also called Vps75 E56C; not shown: His6, N-terminal, cleaved
As for B5, the “stoichiometry N” value in series [12] worked out at 4.

B6: Vps75 triple mutant protein (R164D, K169E, K170E) (natural protein, budding yeast, UniProt P53853 1-264, looked up)
chain: MMSDQENENEHAKAFLGLAKAEEEVDAIEREVELYRLNKMKPVYEKRDAYIDEIAEFWKIVLSQHVSFANYIRASDFKYIDTIDKIKVEWLALESEMYDTRDFSITFHFHGIEGDFKEQQVTKVFQIKKGKDDQEDGILTSEPVPIEWPQSYDSINPDLIKDKDSPEGEEKYRQGMKTIFGWFRWTGLKPGKEFPHGDSLASLFSEEIYPFAVKYYAEAQRDLEDEEGESGLSADGDSEDDDGSLGEVDLPLSDEEPSSKKRKV
notes: Vps75 of budding yeast, mutant in the C21A/C212A construct
On to B6, for which the “stoichiometry N” value in series [13] is 2.

B7: Nap1 PPP mutant (R301P, T302P, K305P) (natural protein)
chain: MSDPIRTKPKSSMQIDNAPTPHNTPASVLNPSYLKNGNPVRAQAQEQDDKIGTINEEDILANQPLLLQSIQDRLGSLVGQDSGYVGGLPKNVKEKLLSLKTLQSELFEVEKEFQVEMFELENKFLQKYKPIWEQRSRIISGQEQPKPEQIAKGQEIVESLNETELLVDEEEKAQNDSEEEQVKGIPSFWLTALENLPIVADTITDRDAEVLEYLQDIGLEYLTDGRPGFKLLFRFDSSANPFFTNDILAKTYFYQKELGYSGDFIYDHAEGAEISWKDNAHNVTVDLEMRKQRNKTTKQVPPIEPITPIESFFNFFDPPKIQNEDQDEELEEDLEERLALDYSIGEQLKDKLIPRAVDWFTGAALEFEFEEDEEEADEDEDEEEDDDHGLEDDDGESAEEQDDFAGRPEQAPEAKQS
Take B7: the “stoichiometry N” value in series [13] was around 2.

B8: Nap1 T251R1 (natural protein, budding yeast, UniProt P25293 1-417, looked up)
chain: MSDPIRTKPKSSMQIDNAPTPHNTPASVLNPSYLKNGNPVRAQAQEQDDKIGTINEEDILANQPLLLQSIQDRLGSLVGQDSGYVGGLPKNVKEKLLSLKTLQSELFEVEKEFQVEMFELENKFLQKYKPIWEQRSRIISGQEQPKPEQIAKGQEIVESLNETELLVDEEEKAQNDSEEEQVKGIPSFWLTALENLPIVADTITDRDAEVLEYLQDIGLEYLTDGRPGFKLLFRFDSSANPFFTNDILAKCYFYQKELGYSGDFIYDHAEGAEISWKDNAHNVTVDLEMRKQRNKTTKQVRTIEKITPIESFFNFFDPPKIQNEDQDEELEEDLEERLALDYSIGEQLKDKLIPRAVDWFTGAALEFEFEEDEEEADEDEDEEEDDDHGLEDDDGESAEEQDDFAGRPEQAPEAKQS
modifications: MTSL spin label (R1) on cysteine 251; deuterated protein
notes: Nap1 of budding yeast, open reading frame, unique cysteine at position 251; also called Nap1 T251C; not shown: His6, N-terminal, cleaved
Turning to B8, the figures for the “stoichiometry N” value in series [14] and in series [12] were 2 and 4, respectively.

B9: Nap1 T307R1 (natural protein, budding yeast, UniProt P25293 1-417, looked up)
chain: MSDPIRTKPKSSMQIDNAPTPHNTPASVLNPSYLKNGNPVRAQAQEQDDKIGTINEEDILANQPLLLQSIQDRLGSLVGQDSGYVGGLPKNVKEKLLSLKTLQSELFEVEKEFQVEMFELENKFLQKYKPIWEQRSRIISGQEQPKPEQIAKGQEIVESLNETELLVDEEEKAQNDSEEEQVKGIPSFWLTALENLPIVADTITDRDAEVLEYLQDIGLEYLTDGRPGFKLLFRFDSSANPFFTNDILAKTYFYQKELGYSGDFIYDHAEGAEISWKDNAHNVTVDLEMRKQRNKTTKQVRTIEKICPIESFFNFFDPPKIQNEDQDEELEEDLEERLALDYSIGEQLKDKLIPRAVDWFTGAALEFEFEEDEEEADEDEDEEEDDDHGLEDDDGESAEEQDDFAGRPEQAPEAKQS
modifications: MTSL spin label (R1) on cysteine 307; deuterated protein
notes: Nap1 of budding yeast, open reading frame, unique cysteine at position 307; also called Nap1 T307C; not shown: His6, N-terminal, cleaved
For the molecule B9, the “stoichiometry N” value in series [14] came to 2; in [12], 4.

B10: Nap1 E209R1 (natural protein, budding yeast, UniProt P25293 1-417, looked up)
chain: MSDPIRTKPKSSMQIDNAPTPHNTPASVLNPSYLKNGNPVRAQAQEQDDKIGTINEEDILANQPLLLQSIQDRLGSLVGQDSGYVGGLPKNVKEKLLSLKTLQSELFEVEKEFQVEMFELENKFLQKYKPIWEQRSRIISGQEQPKPEQIAKGQEIVESLNETELLVDEEEKAQNDSEEEQVKGIPSFWLTALENLPIVADTITDRDACVLEYLQDIGLEYLTDGRPGFKLLFRFDSSANPFFTNDILAKTYFYQKELGYSGDFIYDHAEGAEISWKDNAHNVTVDLEMRKQRNKTTKQVRTIEKITPIESFFNFFDPPKIQNEDQDEELEEDLEERLALDYSIGEQLKDKLIPRAVDWFTGAALEFEFEEDEEEADEDEDEEEDDDHGLEDDDGESAEEQDDFAGRPEQAPEAKQS
modifications: MTSL spin label (R1) on cysteine 209; deuterated protein
notes: Nap1 of budding yeast, open reading frame, unique cysteine at position 209; also called Nap1 E209C; not shown: His6, N-terminal, cleaved
Regarding B10, the “stoichiometry N” value is 2 in [14] and 4 in series [12].
